The text below walks through data of CN110538321A (JIANGSU HENGRUI MEDICINE CO; SHANGHAI HENGRUI …, dated 2019).

Assay [1] deals with T1, 人CD47蛋白 (Leukocyte surface antigen CD47) (human, UniProt Q08722 19-141).
T1 construct: extracellular domain; The assays say only 'CD47'; also called human CD47
In words: CD47 binding ELISA, hybridoma screening. (In general: In an ELISA, binding on a coated surface is turned into a signal by an enzyme label.)

Assay [2] addresses T1, 人CD47蛋白 (Leukocyte surface antigen CD47). The assay is described as follows: Biacore (SPR).
Assay [3] shares this target. In words: Biacore (SPR), reference antibody of the comparison. On the technique in general: SPR reads the build-up and loss of mass on a sensor chip optically.

T1 sequence (Q08722 19-141 limits assumed): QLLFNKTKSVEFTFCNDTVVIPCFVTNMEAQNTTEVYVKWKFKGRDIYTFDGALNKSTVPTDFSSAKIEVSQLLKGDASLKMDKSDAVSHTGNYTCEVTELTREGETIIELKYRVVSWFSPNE

B1: 杂交瘤克隆167鼠源抗体 (antibody, V domains shown)
VH: QVQLQQPGAELVRPGSSVKLSCKASGYTFTSYWMHWVKQRPIQGLEWVGNIDPSDSETHYNQKFKDKATLTVDKSSSTAYMQLSSLTSEDSAVYYCARWGYLGRSAMDYWGQGTSVTVSS
VL: DVQITQSPSYLAASPGETITINCRTSKSISKFLAWYQEKPGKTHKLLIYSGSTLQSGIPSRFSGSGSGTDFTLTISSLEPEDFAMYYCQQHNEYPWTFGGGTKLEIK
notes: Mouse hybridoma antibody; also called 鼠源抗体167
In the case of B1, in assay [1], the binding result was “binds”.

B2: hu167-31 (antibody, V domains shown)
VH: QVQLVQSGAEVKKPGASVKVSCKASGYTFTSYWMHWVRQAPGQGLEWMGNIDPSDSETHYNQKFKDRVTMTRDTSISTAYMELSRLRSDDTAVYYCARWGYLGRSAMDYWGQGTTVTVSS
VL: DVQMTQSPSSLSASVGDRVTITCRTSKSISKFLAWYQQKPGKAPKLLIYSGSTLQSGVPSRFSGSGSGTDFTLTISSLQPEDFATYYCQQHNEYPWTFGGGTKVEIK
In the case of B2, the KD ratio relative to hu167-4 in assay [2] was 1.3.

B3: hu167-33 (antibody, human IgG4 S228P, kappa, F234A L235A, V domains shown)
VH: QVQLVQSGAEVKKPGASVKVSCKASGYTFTSYWMHWVRQAPGQGLEWMGNIDPSDSETHYNQKFKDRVTMTRDTSISTAYMELSRLRSDDTAVYYCARWGYLGRSAMDYWGQGTTVTVSS
VL: DVQITQSPSSLSASVGDRVTITCRTSKSISKFLAWYQQKPGKAPKLLIYSGSTLQSGVPSRFSGSGSGTDFTLTISSLQPEDFATYYCQQHNEYPWTFGGGTKVEIKR
On to B3, for which the KD ratio relative to hu167-4 in assay [2] is 0.98.

B4: hu167-32 (antibody, V domains shown)
VH: QVQLVQSGAEVKKPGASVKVSCKASGYTFTSYWMHWVRQAPGQGLEWMGNIDPSDSETHYNQKFKDRVTMTRDTSISTAYMELSRLRSDDTAVYYCARWGYLGRSAMDYWGQGTTVTVSS
VL: DIQITQSPSSLSASVGDRVTITCRTSKSISKFLAWYQQKPGKAPKLLIYSGSTLQSGVPSRFSGSGSGTDFTLTISSLQPEDFATYYCQQHNEYPWTFGGGTKVEIK
Turning to B4, in assay [2], the KD ratio relative to hu167-4 was determined as 1.2.

B5: hu055-5 (antibody, human IgG4 S228P, kappa, F234A L235A, V domains shown)
VH: QVQLVQSGAEVKKPGASVKVSCKASGYTFTSSYLHWVRQAPGQRLDWIGWIYPESGNTKYNERFKGRATLTADTSASTAYMELSSLRSEDTAVYYCARRGDVFFAYWGQGTTVTVSS
VL: DIVMTQSPDSLAVSLGERATINCKSSQSLLTSGKQKNYLTWYQQKPGQPPKLLIYWASTRESGVPDRFSGSGSGTDFTLTISSLQAEDVAVYYCQNDYSYPLTFGQGTKLEIKR
As to B5, the binding result in assay [2] is recorded as “binds”.

B6: 嵌合抗体ch-055 (antibody, V domains shown)
VH: QVLLQQSGPELVQPGASVKISCKASGYSFTSSYLHWVKQRPGQGLDWIGWIYPESGNTKYNERFKGKATLTADTSSSTAYMQLSSLTSEDSAVYYCSRRGDVFFAYWGQGTTLTVSS
VL: DIVMTQSPSYLTVTAGEKVTMSCKSSQSLLTSGKQKNYLTWYQQKPGQPPKLLIYWASTRESGVPERFRGSGSGTDFTLTISSVQAEDLAVYYCQNDYSYPLTFGAGTKLELN
notes: Chimeric antibody of clone 055
Regarding B6, the binding result in assay [3] is recorded as “binds”.

B7: 杂交瘤克隆055鼠源抗体 (antibody, V domains shown)
VH: QVLLQQSGPELVQPGASVKISCKASGYSFTSSYLHWVKQRPGQGLDWIGWIYPESGNTKYNERFKGKATLTADTSSSTAYMQLSSLTSEDSAVYYCSRRGDVFFAYWGQGTTLTVSS
VL: DIVMTQSPSYLTVTAGEKVTMSCKSSQSLLTSGKQKNYLTWYQQKPGQPPKLLIYWASTRESGVPERFRGSGSGTDFTLTISSVQAEDLAVYYCQNDYSYPLTFGAGTKLELN
notes: Mouse hybridoma antibody; also called 鼠源抗体055
For the molecule B7, the binding result in assay [1] was “binds”.
